Experimental data reported in US20120309934A1 (GWANGJU INSTITUTE OF SCIENCE AND TECHNOLOGY, published 2012).

Columns and labels:
Human serum albumin = target: T1, Human serum albumin (human, UniProt P02768 25-609); experiment: phage ELISA: clones with higher absorbance than on BSA, sequenced
T1 construct: Bought protein; also called HSA; HAS
Description: (§1) The transformed cells were infected with Ex helper phages (5×10⁹ pfu/ml; OD=0.8-1.0) and cultured at 37° C. for 1 hr with shaking at 200 rpm. After removing the supernatant by centrifuging at 1,000×g for 10 min, the precipitated cells were resuspended in 1 ml LB liquid media supplemented with 50 μg/ml ampicillin and 25 μg/ml kanamycin, and cultured at 30° C. overnight with shaking at 200 rpm. The supernatant was collected by centrifuging at 10,000×g for 20 min at 4° C. and mixed with 2% skim milk, which is used in detection of phage peptides.
(§2) Fibronectin ED-B, VEGF, VCAM1, Nicotinic acetylcholine receptor (nAchR), Human serum albumin and MyD88 (each 5 μg/ml) and BSA (10 μg/ml) were added to 30 wells (50 μl per well) in a 96-well ELISA plate and then kept to stand at 4° C. overnight. Next day, all wells were washed with 0.1% PBST three times, and blocked at room temperature for 2 hrs using 2% skim milk diluted with PBS. Then, the solution was removed and the plate was washed with 0.1% PBST three times. Phage peptide solution (100 μl) amplified from each clone was divided into all wells and kept to stand at 27° C. for 1.5 hrs. After washing with 0.1% PBST 5 times, HRP-conjugated anti-M13 antibodies (1:1,000 dilution; GE Healthcare) were added to each well and incubated at 27° C. for 1 hr. After washing with 0.1% PBST 5 times, 100 μl TMB was divided into each well to induce colorimetric reaction, followed by stopping the reaction adding 100 μl of 1 M HCl. The absorbance was measured at 450 nm to select phages which had the absorbance higher than BSA. XL1 cells were infected with these phages and spread in plate to produce 100-200 of plaques. Using a sterile tip, plaques were inoculated in 4 ml LB-ampicillin (50 μg/ml) media and cultured at 37° C. overnight with vigorous shaking. Plasmids were purified by plasmid preparation kit (GeneAll, Seoul, Korea), and then sequenced. The following phagemid sequence was used for sequencing: 5′-[…]-3′.
(§3) The phages recovered from biopanning step having the highest ratio of output phage to input phage were isolated as plaques. Sixty plaques were amplified from each plaque, and then ELISA for BSA was carried out (FIG. 4). After selecting clones with higher absorbance compared to BSA, they were sequenced. We isolated peptides specific to each protein which were repetitively found in DNA sequencing (Table 3).

[1] = target: T2, GST-AR DBD protein (androgen receptor DNA binding domain with N-terminal GST) (UniProt P10275 556-636); experiment: phage ELISA of single clones on AR-DBD against BSA
T2 construct: In ELISA and EMSA the text calls the protein AR-DBD or AR DBD protein; also called androgen receptor DBD; not shown: GST encoded by the pGEX-4T-1 vector, N-terminal
T2 sequence (looked up): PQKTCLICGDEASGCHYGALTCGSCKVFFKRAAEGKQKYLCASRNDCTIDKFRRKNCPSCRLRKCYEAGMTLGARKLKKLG
Description: AR-DBD (10 μg/ml) and BSA (10 μg/ml) each was added to 30 wells (50 μl per well) in a 96-well ELISA plate and then kept to stand at 4° C. overnight. Next day, all wells were washed with 0.1% PBST three times, and blocked at room temperature for 2 hrs using 2% skim milk diluted with PBS. Then, the solution was removed and the plate was washed with 0.1% PBST three times. Phage peptide solution (100 μl) amplified from each clone was aliquoted to […] protein-bound wells and BSA protein-bound wells and kept to stand at 27° C. for 1.5 hrs. After washing with 0.1% PBST 10 times, HRP-conjugated anti-M13 antibodies (1:1,000 dilution; GE Healthcare) were added to each well and incubated at 27° C. for 1 hr. After washing with 0.1% PBST 5 times, 100 μl TMB was divided into each well to induce colorimetric reaction, followed by stopping the reaction adding 100 μl of 1 M HCl. The absorbance was measured at 450 nm to select phages which had the absorbance above 20-fold higher than BSA. XL1 cells were infected with these phages and spread in plate to produce 100-200 of plaques. […]
The phages recovered from the 5th biopanning step having the highest O/I ratio in each library were isolated as plaques. […] Most plaques were analyzed to show the absorbance value of AR-DBD higher than that of BSA. The DNA sequencing was performed for 20 clones showing the absorbance value above 5-fold higher than BSA. […]

[2] = target: T3, VEGF121 (human vascular endothelial growth factor) (human, UniProt P15692-9 27-147); experiment: phage ELISA: clones with higher absorbance than on BSA, sequenced
T3 construct: Immobilised on a CM5 chip by EDC/NHS for SPR and coated on plates for phage ELISA; also called VEGF-Trx cut with thrombin
T3 sequence (looked up): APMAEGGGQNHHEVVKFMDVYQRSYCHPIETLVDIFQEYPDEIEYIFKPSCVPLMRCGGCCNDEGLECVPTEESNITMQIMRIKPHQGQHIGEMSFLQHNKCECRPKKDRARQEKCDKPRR
Description: as §1, §2, §3

[3] = target: T3, VEGF121 (human vascular endothelial …); experiment: SPR (BIAcore X), VEGF on CM5 chip, synthetic peptide as analyte
Description: (§4) Bipodal-peptide binder peptides specific to ED-B, VEGF or nAchR which were repetitively found in DNA sequencing were synthesized from Anigen Inc. (Korea). Affinity was measured using BIAcore X instrument (Biacore AB, Uppsala, Sweden). ED-B and nAchR were immobilized on streptavidin (SA) chip (Biacore) by injecting 2,000 RU biotinylated-EDB. VEGF was immobilized on CM5 chip (Biacore) using EDC/NHS. PBS (pH 7.4) was used as a running buffer.
(§5) The above-mentioned peptides were synthesized and their affinities to fibronectin ED-B, VEGF, VCAM1, nAchR and HAS were measured using SPR Biacore system (Biacore AB, Uppsala, Sweden).

[4] = target: T3, VEGF121 (human vascular endothelial …); experiment: SPR (BIAcore X), VEGF on CM5 chip
Description: as §4, §5

BSA = target: T4, BSA (UniProt P02769 25-607); experiment: phage ELISA, absorbance at 450 nm
T4 construct: Control protein in the input-phage ELISA; also called bovine serum albumin
T4 sequence (P02769 25-607 limits assumed): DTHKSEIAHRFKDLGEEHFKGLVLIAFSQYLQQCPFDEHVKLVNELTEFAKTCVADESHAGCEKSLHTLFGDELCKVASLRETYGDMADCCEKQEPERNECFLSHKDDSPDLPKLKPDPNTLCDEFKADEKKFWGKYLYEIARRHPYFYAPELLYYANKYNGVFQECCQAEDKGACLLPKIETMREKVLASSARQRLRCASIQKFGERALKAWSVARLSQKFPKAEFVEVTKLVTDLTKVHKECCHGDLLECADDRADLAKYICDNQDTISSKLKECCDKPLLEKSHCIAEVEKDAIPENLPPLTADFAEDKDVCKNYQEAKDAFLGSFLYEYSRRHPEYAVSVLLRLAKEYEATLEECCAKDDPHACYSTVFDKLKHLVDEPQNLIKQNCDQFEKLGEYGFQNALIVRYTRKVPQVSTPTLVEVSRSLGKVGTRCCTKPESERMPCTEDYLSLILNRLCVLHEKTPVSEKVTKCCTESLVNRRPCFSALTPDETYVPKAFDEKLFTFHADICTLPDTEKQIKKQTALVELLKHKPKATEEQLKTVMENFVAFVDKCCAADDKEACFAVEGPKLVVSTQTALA

[5] = target: T5, Peptide fragment of nAchR (Nicotinic acetylcholine receptor), 32 mer, biotinylated (N-terminal biotin); experiment: phage ELISA: clones with higher absorbance than on BSA, sequenced
T5 construct: Synthesised by Anigen; Immobilised on a streptavidin chip for SPR; also called biotinylated nAchR; biotinylated-nAchR peptide
T5 peptide: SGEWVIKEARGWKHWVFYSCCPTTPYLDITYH
Description: as §1, §2, §3

[6] = target: T6, Fibronectin ED-B protein (human fibronectin extra domain B, N-terminal His-tag) (human, UniProt P02751 1266-1356, biotinylated with sulfo-NHS-SS-biotin for biopanning, input-phage ELISA and SPR on the streptavidin chip); experiment: SPR (Biacore), ED-B
T6 construct: domain: ED-B; Expressed in E. coli BL21 from pET28b; also called biotinylated-EDB; not shown: N-terminal His-tag from the pET28b vector
T6 sequence (P02751 1266-1356): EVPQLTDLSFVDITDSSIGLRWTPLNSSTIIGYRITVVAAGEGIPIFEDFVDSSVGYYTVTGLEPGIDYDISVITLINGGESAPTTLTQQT
Description: as §4
(§6) To verify cooperative effect of bipodal-peptide binder to antigen, we synthesized two peptides removing either N- or C-terminal region of peptide 2 to ED-B having excellent specificity in Table 3a for affinity measurement.

[7] = target: T6, Fibronectin ED-B protein (human …); experiment: SPR, synthetic truncated peptide on ED-B
Description: as §4, §6

[8] = target: T6, Fibronectin ED-B protein (human …); experiment: SPR (BIAcore X), 2,000 RU biotinylated ED-B on streptavidin chip, PBS pH 7.4, 30 µl/min
Description: (§7) In addition to tryptophan zipper, GB1 m3 and HP7 peptide as a type of other (3-hairpin backbones were synthesized to contain N-terminal sequence (HCSSAV) and C-terminal sequence (IIRLEQ) of peptide 2 which is specifically bound to ED-B (Anigen, Korea). In other words, the sequence of bipodal-peptide binder in tryptophan zipper is […], and in GB1 m3 and HP7 are […] and […], respectively. Affinity of each peptide was measured using BIAcore X (Biacore AB, Uppsala, Sweden). ED-B was immobilized on streptavidin (SA) chip (Biacore) by injecting 2,000 RU biotinylated-EDB. PBS (pH 7.4) was used as a running buffer. […] It could be appreciated that all stable β-hairpin motifs may function as a structure stabilizing region.

[9] = target: T6, Fibronectin ED-B protein (human …); experiment: SPR (BIAcore X), biotinylated ED-B on SA chip
Description: as §7

[10] = target: T6, Fibronectin ED-B protein (human …); experiment: SPR (BIAcore X), biotinylated ED-B on SA chip; remark: listed apart in the source
Description: as §4, §5

[11] = target: T6, Fibronectin ED-B protein (human …); experiment: SPR (BIAcore X), biotinylated ED-B on streptavidin chip, synthetic peptide as analyte
Description: as §4, §5

T1 sequence (P02768 25-609 limits assumed): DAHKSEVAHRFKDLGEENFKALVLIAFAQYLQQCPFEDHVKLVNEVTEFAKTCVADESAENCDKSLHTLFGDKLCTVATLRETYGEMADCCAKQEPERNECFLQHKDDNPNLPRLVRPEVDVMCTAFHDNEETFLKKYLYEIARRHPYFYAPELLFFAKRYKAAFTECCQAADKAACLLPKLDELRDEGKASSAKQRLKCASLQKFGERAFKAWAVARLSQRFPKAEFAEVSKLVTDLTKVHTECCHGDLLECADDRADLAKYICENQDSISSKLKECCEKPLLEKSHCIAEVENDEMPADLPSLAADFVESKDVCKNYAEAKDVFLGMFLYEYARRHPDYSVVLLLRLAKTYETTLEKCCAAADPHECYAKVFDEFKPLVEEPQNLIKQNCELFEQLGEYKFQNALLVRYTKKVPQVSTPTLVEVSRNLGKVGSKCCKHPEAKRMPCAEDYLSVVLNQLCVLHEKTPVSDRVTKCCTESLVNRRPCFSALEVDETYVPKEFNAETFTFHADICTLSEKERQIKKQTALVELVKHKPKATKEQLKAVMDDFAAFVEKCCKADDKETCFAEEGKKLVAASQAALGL

B1: Peptide 5 specific to HSA (Table 3e), bipodal-peptide binder (peptide)
peptide: YAHFGWGSWTWENGKWTWKGTTDSQS
Human serum albumin
  binding result: binds

B2: Peptide 1 from the AR-DBD biopanning (14/20 clones), bipodal-peptide binder (peptide)
peptide: YGFAPFGSWTWENGKWTWKGYSTQKP
[1]
  fold absorbance over BSA: > 5 fold

B3: Peptide 4 specific to VEGF (Table 3b), the same letters as Peptide 4 specific to HSA (Table 3e), bipodal-peptide binder (peptide)
peptide: YGAYPWGSWTWENGKWTWKGWRVSRD
[2]
  binding result: binds
Human serum albumin
  binding result: binds

B4: Peptide 5 specific to VEGF (Table 3b), bipodal-peptide binder (peptide)
peptide: AAPTSFGSWTWENGKWTWKGWQMWHR
[2]
  binding result: binds

B5: Peptide 2 specific to VEGF (Table 3b), bipodal-peptide binder (peptide)
peptide: ASPFWAGSWTWENGKWTWKGWVPSNA
[3]
  Kd: 326 nM
[4]
  koff: 0.011 s⁻¹
  kon: 35000 M⁻¹ s⁻¹

B6: Peptide 3 specific to VEGF (Table 3b), bipodal-peptide binder (peptide)
peptide: HAFYYTGSWTWENGKWTWKGWPVTTS
[2]
  binding result: binds

B7: Peptide 1 specific to VEGF (Table 3b), bipodal-peptide binder (peptide)
peptide: HANFFQGSWTWENGKWTWKGWKYNQS
[3]
  Kd: 60 nM
[4]
  koff: 0.013 s⁻¹
  kon: 220000 M⁻¹ s⁻¹
BSA
  binding result: no binding

B8: Peptide 2 specific to nAchR (Table 3d), bipodal-peptide binder (peptide)
peptide: YAYPLLGSWTWENGKWTWKGWYQKWI
[5]
  binding result: binds

B9: Peptide 3 specific to HSA (Table 3e), bipodal-peptide binder (peptide)
peptide: YAHVYYGSWTWENGKWTWKGHRVTQT
Human serum albumin
  binding result: binds

B10: Peptide 2 specific to HSA (Table 3e), bipodal-peptide binder (peptide)
peptide: SANSLYGSWTWENGKWTWKGTSRQRW
Human serum albumin
  binding result: binds

B11: C-terminal region peptide derived from ED-B peptide 2 (monopodal, one target binding region removed) (peptide)
peptide: GSWTWENGKWTWKGIIRLEQ
[6]
  koff: 0.022 s⁻¹
  kon: 1770 M⁻¹ s⁻¹
[7]
  Kd: 12.8 µM

B12: N-terminal region peptide derived from ED-B peptide 2 (monopodal, one target binding region removed) (peptide)
peptide: HCSSAVGSWTWENGKWTWKG
[6]
  koff: 2.54 s⁻¹
  kon: 4290 M⁻¹ s⁻¹
[7]
  Kd: 592 µM

B13: Bipodal-peptide binder with GB1 m3 β-hairpin backbone carrying the ED-B peptide 2 binding regions (peptide)
peptide: HCSSAVGKKWTYNPATGKFTVQEGIIRLEQ
notes: Synthetic peptide (Anigen)
[8]
  Kd: 70 nM
[9]
  koff: 0.0119 s⁻¹
  kon: 169000 M⁻¹ s⁻¹

B14: Peptide 2 from the AR-DBD biopanning (6/20 clones), bipodal-peptide binder (peptide)
peptide: GGHNIQGSWTWENGKWTWKGWQHIWG
[1]
  fold absorbance over BSA: > 5 fold

B15: Peptide 3 specific to fibronectin ED-B (Table 3a), bipodal-peptide binder (peptide)
peptide: HSQGSPGSWTWENGKWTWKGRYSHRA
[10]
  koff: 0.099 s⁻¹
  kon: 390000 M⁻¹ s⁻¹
[11]
  Kd: 2500 nM

B16: Peptide 1 specific to fibronectin ED-B (Table 3a), bipodal-peptide binder (peptide)
peptide: MSADKSGSWTWENGKWTWKGQVRTRD
[10]
  koff: 0.024 s⁻¹
  kon: 38000 M⁻¹ s⁻¹
[11]
  Kd: 620 nM

B17: Bipodal-peptide binder with HP7 β-hairpin backbone carrying the ED-B peptide 2 binding regions (peptide)
peptide: HCSSAVGKTWNPATGKWTEGIIRLEQ
notes: Synthetic peptide (Anigen)
[8]
  Kd: 84 nM
[9]
  koff: 0.0197 s⁻¹
  kon: 236000 M⁻¹ s⁻¹

B18: Peptide 3 specific to nAchR (Table 3d), bipodal-peptide binder (peptide)
peptide: ASLPAWGSWTWENGKWTWKGWSTRTA
[5]
  binding result: binds
